The labels stand for the following.
B1: equine IgG4 K311Q (antibody, part only; not given: variable domains, not shown: another chain or arm of the molecule)
constant: ASTTAPKVFPLASHSAATSGSTVALGCLVSSYFPEPVTVSWNSGALTSGVHTFPSVLQSSGLYSLSSMVTVPASSLKSQTYICNVAHPASSTKVDKKIVIKECNGGCPAECLQVGPSVFIFPPKPKDVLMISRTPTVTCVVVDVGHDFPDVQFNWYVDGVETHTATTEPKQEQFNSTYRVVSVLPIQHQDWLSGKEFKCKVNNKALPAPVERTISKPTGQPREPQVYVLAPHRDELSKNKVSVTCLVKDFYPTDIDIEWKSNGQPEPETKYSTTPAQLDSDGSYFLYSKLTVETNRWQQGTTFTCAVMHEALHNHYTEKSVSKSPGK
B2: equine IgG4 A426D (antibody, part only; not given: variable domains, not shown: another chain or arm of the molecule)
constant: ASTTAPKVFPLASHSAATSGSTVALGCLVSSYFPEPVTVSWNSGALTSGVHTFPSVLQSSGLYSLSSMVTVPASSLKSQTYICNVAHPASSTKVDKKIVIKECNGGCPAECLQVGPSVFIFPPKPKDVLMISRTPTVTCVVVDVGHDFPDVQFNWYVDGVETHTATTEPKQEQFNSTYRVVSVLPIQHKDWLSGKEFKCKVNNKALPAPVERTISKPTGQPREPQVYVLAPHRDELSKNKVSVTCLVKDFYPTDIDIEWKSNGQPEPETKYSTTPAQLDSDGSYFLYSKLTVETNRWQQGTTFTCDVMHEALHNHYTEKSVSKSPGK
B3: equine IgG4 A426C (antibody, part only; not given: variable domains, not shown: another chain or arm of the molecule)
constant: ASTTAPKVFPLASHSAATSGSTVALGCLVSSYFPEPVTVSWNSGALTSGVHTFPSVLQSSGLYSLSSMVTVPASSLKSQTYICNVAHPASSTKVDKKIVIKECNGGCPAECLQVGPSVFIFPPKPKDVLMISRTPTVTCVVVDVGHDFPDVQFNWYVDGVETHTATTEPKQEQFNSTYRVVSVLPIQHKDWLSGKEFKCKVNNKALPAPVERTISKPTGQPREPQVYVLAPHRDELSKNKVSVTCLVKDFYPTDIDIEWKSNGQPEPETKYSTTPAQLDSDGSYFLYSKLTVETNRWQQGTTFTCCVMHEALHNHYTEKSVSKSPGK
B4: equine IgG4 K311V (antibody, part only; not given: variable domains, not shown: another chain or arm of the molecule)
constant: ASTTAPKVFPLASHSAATSGSTVALGCLVSSYFPEPVTVSWNSGALTSGVHTFPSVLQSSGLYSLSSMVTVPASSLKSQTYICNVAHPASSTKVDKKIVIKECNGGCPAECLQVGPSVFIFPPKPKDVLMISRTPTVTCVVVDVGHDFPDVQFNWYVDGVETHTATTEPKQEQFNSTYRVVSVLPIQHVDWLSGKEFKCKVNNKALPAPVERTISKPTGQPREPQVYVLAPHRDELSKNKVSVTCLVKDFYPTDIDIEWKSNGQPEPETKYSTTPAQLDSDGSYFLYSKLTVETNRWQQGTTFTCAVMHEALHNHYTEKSVSKSPGK
B5: equine IgG4 A426I (antibody, part only; not given: variable domains, not shown: another chain or arm of the molecule)
constant: ASTTAPKVFPLASHSAATSGSTVALGCLVSSYFPEPVTVSWNSGALTSGVHTFPSVLQSSGLYSLSSMVTVPASSLKSQTYICNVAHPASSTKVDKKIVIKECNGGCPAECLQVGPSVFIFPPKPKDVLMISRTPTVTCVVVDVGHDFPDVQFNWYVDGVETHTATTEPKQEQFNSTYRVVSVLPIQHKDWLSGKEFKCKVNNKALPAPVERTISKPTGQPREPQVYVLAPHRDELSKNKVSVTCLVKDFYPTDIDIEWKSNGQPEPETKYSTTPAQLDSDGSYFLYSKLTVETNRWQQGTTFTCIVMHEALHNHYTEKSVSKSPGK
B6: equine IgG4 A426F (antibody, part only; not given: variable domains, not shown: another chain or arm of the molecule)
constant: ASTTAPKVFPLASHSAATSGSTVALGCLVSSYFPEPVTVSWNSGALTSGVHTFPSVLQSSGLYSLSSMVTVPASSLKSQTYICNVAHPASSTKVDKKIVIKECNGGCPAECLQVGPSVFIFPPKPKDVLMISRTPTVTCVVVDVGHDFPDVQFNWYVDGVETHTATTEPKQEQFNSTYRVVSVLPIQHKDWLSGKEFKCKVNNKALPAPVERTISKPTGQPREPQVYVLAPHRDELSKNKVSVTCLVKDFYPTDIDIEWKSNGQPEPETKYSTTPAQLDSDGSYFLYSKLTVETNRWQQGTTFTCFVMHEALHNHYTEKSVSKSPGK
B7: equine IgG4 K311Y (antibody, part only; not given: variable domains, not shown: another chain or arm of the molecule)
constant: ASTTAPKVFPLASHSAATSGSTVALGCLVSSYFPEPVTVSWNSGALTSGVHTFPSVLQSSGLYSLSSMVTVPASSLKSQTYICNVAHPASSTKVDKKIVIKECNGGCPAECLQVGPSVFIFPPKPKDVLMISRTPTVTCVVVDVGHDFPDVQFNWYVDGVETHTATTEPKQEQFNSTYRVVSVLPIQHYDWLSGKEFKCKVNNKALPAPVERTISKPTGQPREPQVYVLAPHRDELSKNKVSVTCLVKDFYPTDIDIEWKSNGQPEPETKYSTTPAQLDSDGSYFLYSKLTVETNRWQQGTTFTCAVMHEALHNHYTEKSVSKSPGK
B8: equine IgG4 K311R (antibody, part only; not given: variable domains, not shown: another chain or arm of the molecule)
constant: ASTTAPKVFPLASHSAATSGSTVALGCLVSSYFPEPVTVSWNSGALTSGVHTFPSVLQSSGLYSLSSMVTVPASSLKSQTYICNVAHPASSTKVDKKIVIKECNGGCPAECLQVGPSVFIFPPKPKDVLMISRTPTVTCVVVDVGHDFPDVQFNWYVDGVETHTATTEPKQEQFNSTYRVVSVLPIQHRDWLSGKEFKCKVNNKALPAPVERTISKPTGQPREPQVYVLAPHRDELSKNKVSVTCLVKDFYPTDIDIEWKSNGQPEPETKYSTTPAQLDSDGSYFLYSKLTVETNRWQQGTTFTCAVMHEALHNHYTEKSVSKSPGK
B9: equine IgG4 K311W (antibody, part only; not given: variable domains, not shown: another chain or arm of the molecule)
constant: ASTTAPKVFPLASHSAATSGSTVALGCLVSSYFPEPVTVSWNSGALTSGVHTFPSVLQSSGLYSLSSMVTVPASSLKSQTYICNVAHPASSTKVDKKIVIKECNGGCPAECLQVGPSVFIFPPKPKDVLMISRTPTVTCVVVDVGHDFPDVQFNWYVDGVETHTATTEPKQEQFNSTYRVVSVLPIQHWDWLSGKEFKCKVNNKALPAPVERTISKPTGQPREPQVYVLAPHRDELSKNKVSVTCLVKDFYPTDIDIEWKSNGQPEPETKYSTTPAQLDSDGSYFLYSKLTVETNRWQQGTTFTCAVMHEALHNHYTEKSVSKSPGK
B10: equine IgG4 K311T (antibody, part only; not given: variable domains, not shown: another chain or arm of the molecule)
constant: ASTTAPKVFPLASHSAATSGSTVALGCLVSSYFPEPVTVSWNSGALTSGVHTFPSVLQSSGLYSLSSMVTVPASSLKSQTYICNVAHPASSTKVDKKIVIKECNGGCPAECLQVGPSVFIFPPKPKDVLMISRTPTVTCVVVDVGHDFPDVQFNWYVDGVETHTATTEPKQEQFNSTYRVVSVLPIQHTDWLSGKEFKCKVNNKALPAPVERTISKPTGQPREPQVYVLAPHRDELSKNKVSVTCLVKDFYPTDIDIEWKSNGQPEPETKYSTTPAQLDSDGSYFLYSKLTVETNRWQQGTTFTCAVMHEALHNHYTEKSVSKSPGK
B11: equine IgG4 K311S (antibody, part only; not given: variable domains, not shown: another chain or arm of the molecule)
constant: ASTTAPKVFPLASHSAATSGSTVALGCLVSSYFPEPVTVSWNSGALTSGVHTFPSVLQSSGLYSLSSMVTVPASSLKSQTYICNVAHPASSTKVDKKIVIKECNGGCPAECLQVGPSVFIFPPKPKDVLMISRTPTVTCVVVDVGHDFPDVQFNWYVDGVETHTATTEPKQEQFNSTYRVVSVLPIQHSDWLSGKEFKCKVNNKALPAPVERTISKPTGQPREPQVYVLAPHRDELSKNKVSVTCLVKDFYPTDIDIEWKSNGQPEPETKYSTTPAQLDSDGSYFLYSKLTVETNRWQQGTTFTCAVMHEALHNHYTEKSVSKSPGK
B12: equine IgG4 A426K (antibody, part only; not given: variable domains, not shown: another chain or arm of the molecule)
constant: ASTTAPKVFPLASHSAATSGSTVALGCLVSSYFPEPVTVSWNSGALTSGVHTFPSVLQSSGLYSLSSMVTVPASSLKSQTYICNVAHPASSTKVDKKIVIKECNGGCPAECLQVGPSVFIFPPKPKDVLMISRTPTVTCVVVDVGHDFPDVQFNWYVDGVETHTATTEPKQEQFNSTYRVVSVLPIQHKDWLSGKEFKCKVNNKALPAPVERTISKPTGQPREPQVYVLAPHRDELSKNKVSVTCLVKDFYPTDIDIEWKSNGQPEPETKYSTTPAQLDSDGSYFLYSKLTVETNRWQQGTTFTCKVMHEALHNHYTEKSVSKSPGK
B13: equine IgG4 A426G (antibody, part only; not given: variable domains, not shown: another chain or arm of the molecule)
constant: ASTTAPKVFPLASHSAATSGSTVALGCLVSSYFPEPVTVSWNSGALTSGVHTFPSVLQSSGLYSLSSMVTVPASSLKSQTYICNVAHPASSTKVDKKIVIKECNGGCPAECLQVGPSVFIFPPKPKDVLMISRTPTVTCVVVDVGHDFPDVQFNWYVDGVETHTATTEPKQEQFNSTYRVVSVLPIQHKDWLSGKEFKCKVNNKALPAPVERTISKPTGQPREPQVYVLAPHRDELSKNKVSVTCLVKDFYPTDIDIEWKSNGQPEPETKYSTTPAQLDSDGSYFLYSKLTVETNRWQQGTTFTCGVMHEALHNHYTEKSVSKSPGK
B14: equine IgG4 A426E (antibody, part only; not given: variable domains, not shown: another chain or arm of the molecule)
constant: ASTTAPKVFPLASHSAATSGSTVALGCLVSSYFPEPVTVSWNSGALTSGVHTFPSVLQSSGLYSLSSMVTVPASSLKSQTYICNVAHPASSTKVDKKIVIKECNGGCPAECLQVGPSVFIFPPKPKDVLMISRTPTVTCVVVDVGHDFPDVQFNWYVDGVETHTATTEPKQEQFNSTYRVVSVLPIQHKDWLSGKEFKCKVNNKALPAPVERTISKPTGQPREPQVYVLAPHRDELSKNKVSVTCLVKDFYPTDIDIEWKSNGQPEPETKYSTTPAQLDSDGSYFLYSKLTVETNRWQQGTTFTCEVMHEALHNHYTEKSVSKSPGK
B15: equine IgG4 A426H (antibody, part only; not given: variable domains, not shown: another chain or arm of the molecule)
constant: ASTTAPKVFPLASHSAATSGSTVALGCLVSSYFPEPVTVSWNSGALTSGVHTFPSVLQSSGLYSLSSMVTVPASSLKSQTYICNVAHPASSTKVDKKIVIKECNGGCPAECLQVGPSVFIFPPKPKDVLMISRTPTVTCVVVDVGHDFPDVQFNWYVDGVETHTATTEPKQEQFNSTYRVVSVLPIQHKDWLSGKEFKCKVNNKALPAPVERTISKPTGQPREPQVYVLAPHRDELSKNKVSVTCLVKDFYPTDIDIEWKSNGQPEPETKYSTTPAQLDSDGSYFLYSKLTVETNRWQQGTTFTCHVMHEALHNHYTEKSVSKSPGK
B16: equine IgG1 T286I (antibody, part only; not given: variable domains, not shown: another chain or arm of the molecule)
constant: ASTTAPKVFALAPGCGTTSDSTVALGCLVSGYFPEPVKVSWNSGSLTSGVHTFPSVLQSSGFYSLSSMVTVPASTWTSETYICNVVHAASNFKVDKRIEPIPDNHQKVCDMSKCPKCPAPELLGGPSVFIFPPNPKDTLMITRTPEVTCVVVDVSQENPDVKFNWYMDGVEVRIATTRPKEEQFNSTYRVVSVLRIQHQDWLSGKEFKCKVNNQALPQPIERTITKTKGRSQEPQVYVLAPHPDELSKSKVSVTCLVKDFYPPEINIEWQSNGQPELETKYSTTQAQQDSDGSYFLYSKLSVDRNRWQQGTTFTCGVMHEALHNHYTQKNVSKNPGK

In general, Kd refers to a measure of binding affinity in units of concentration. The low end stands for higher affinity, the high end for lower affinity.

For this test, the target named is equine FcRn (large alpha subunit p51) / equine beta-2-microglobulin complex, biotinylated (equine) (UniProt P30441). Put plainly: SPR (Biacore), pH 6. (In SPR one partner is held on a chip, and binding of the other changes the refractive index at the surface.)
UniProt P30441, sequence (P30441 21-118, one chain of several): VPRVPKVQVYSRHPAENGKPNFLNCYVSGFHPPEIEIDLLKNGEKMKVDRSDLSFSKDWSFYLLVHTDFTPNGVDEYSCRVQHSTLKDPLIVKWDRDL
For the molecule B1, the Kd amounted to 0.0219 µM.

B2 displayed a Kd of 0.0155 µM.

As for B3, the Kd was 0.0182 µM.

In turn, B4 registered a Kd of 0.0224 µM.

In turn, B5 had a Kd of 0.0174 µM.

B6 had a dissociation constant (Kd) of 0.0176 µM.

For the molecule B7, the Kd was found to be 0.0213 µM.

Molecule B8 displayed an equilibrium dissociation constant (Kd) of 0.0161 µM.

For the molecule B9, the Kd worked out at 0.0271 µM.

Turning to B10, the Kd amounted to 0.0255 µM.

B11 showed a Kd of 0.0124 µM.

B12 registered a Kd of 0.0145 µM.

Take B13: the Kd was determined as 0.0333 µM.

For the molecule B14, the Kd amounted to 0.0182 µM.

B15 yielded an equilibrium dissociation constant (Kd) of 0.0178 µM.

On to B16, for which the equilibrium dissociation constant (Kd) stood at 0.0182 µM.
